For test [1], the target named is VEGF (UniProt P15692).
For test [2], the target named is VEGF (UniProt P15692). The experiment in a line: SPR; Biacore, n = 3. For orientation: SPR reads the build-up and loss of mass on a sensor chip optically.
The target in test [3] is VEGF (UniProt P15692). The experiment in a line: ELISA; direct binding ELISA to IL-17A or VEGF, measured in duplicate, n = 2; who was coated is not told. On the technique in general: In an ELISA, binding on a coated surface is turned into a signal by an enzyme label.

VEGF, sequence (P15692 whole entry): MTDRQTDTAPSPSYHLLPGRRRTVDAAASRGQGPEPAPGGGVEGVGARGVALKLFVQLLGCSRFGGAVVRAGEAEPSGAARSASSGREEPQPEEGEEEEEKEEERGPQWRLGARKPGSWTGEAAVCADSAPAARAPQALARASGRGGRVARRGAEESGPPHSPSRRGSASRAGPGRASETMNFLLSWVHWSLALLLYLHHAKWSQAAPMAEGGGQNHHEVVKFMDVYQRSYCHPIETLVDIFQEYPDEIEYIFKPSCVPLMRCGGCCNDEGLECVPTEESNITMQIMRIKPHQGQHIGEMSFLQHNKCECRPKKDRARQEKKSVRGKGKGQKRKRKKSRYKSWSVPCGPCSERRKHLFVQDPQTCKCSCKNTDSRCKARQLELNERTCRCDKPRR

B1: bispecific fusion protein 17V05 (bispecific antibody, V domains shown)
VH: EVQLVESGGGLVQPGGSLRLSCAASGFTFSSFDMSWGRQAPGKRLEWVAFMSSGGSTYYPDSVKGRFTISRDNSKNTLYLQMNSLRAEDTAVYYCARGERYGSYWGQGTLVTVSS
VL: DIQMTQSPSSLSASVGDRVTITCKASDHINNWLAWYQQKPGKAPKLLISGATSLETGVPSRFSGSGSGTDYTLTISSLQPEDFATYYCQQYWSTPFTFGSGTKLEIK
Broadly, the Kd is the equilibrium constant for the complex coming apart. High values mean a looser complex, low ones a tighter complex. In general, EC50 refers to the concentration needed to bring the measured effect to its halfway point. B1 gave a luciferase signal of KDR/NFAT-RE HEK293 reporter cells with 30 ng/mL VEGF; blocks signalling of VEGF through KDR in test [1] of 0.26 nM. This molecule also registered a Kd in test [2] of 0.011 nM. This molecule also came in with an EC50 in test [3] of 0.37 nM.

These data come from article PMC11681983.
